For the assay, the target named is HC-fragment of BoNT/DC fused to a C-terminal Streptag (HCDCS; AA 863–1285), wild-type (C. botulinum strain OFD05, UniProt A5JGM8 863-1285). The assay is described as follows: SPR. The conditions noted are these: both partners purified.

The values below come from PMC5951583 (PLoS Pathogens, 2018).

Several values for one entry are separate records, joined by “and”; a condition that tells them apart may be missing. Equal values may be shown once.

What is called Kd is the free concentration of one partner at which half of the binding sites on the other are occupied at equilibrium, for simple one-to-one binding. The low end stands for a tighter complex, the high end for a looser complex. A word on the koff: it is a measure of how fast the partners let go of each other. Broadly, the kon is the rate constant with which the complex forms. Read a high kon as fast association.

B1: GST-rSyt-II 1–61 (domain or fragment)
chain: MRNIFKRNQEPIVAPATTTATMPLAPAAPADNSTESTGTGESQEDMFAKLKDKFFNEINKI
notes: also called GST-Syt-II 1–61; isolated Syt-II
B1 returned a Kd of 1.8 µM, a koff of 0.24 s⁻¹ and a kon of 230000 M⁻¹ s⁻¹.

B2: GST-rSyt-II 1–90 (domain or fragment)
chain: MRNIFKRNQEPIVAPATTTATMPLAPAAPADNSTESTGTGESQEDMFAKLKDKFFNEINKIPLPPWALIAMAVVAGLLLLTCCFCICKKC
notes: also called GST-Syt-II 1–90; Syt-II with its TMD
As to B2, the koff is 0.49 s⁻¹ and 0.63 s⁻¹.
